From PMC2900306, “Integration Preferences of Wildtype AAV-2 for Consensus Rep-Binding Sites at Numerous Loci in the Human Genome”

Columns and labels:
MBP-Rep78 [1] = biological target: T1, MBP-Rep78 (Adeno-associated virus type 2 (AAV-2)?, UniProt Q89268 1-621); assay: EMSA; among the highest affinities; 10 mM Mg2+; 25 mM HEPES-KOH pH 7.8, 10 mM MgCl2, 40 mM NaCl, 1 mM DTT, 2% glycerol, 12.5 ug/ml BSA, 0.01% Nonidet P40, 5 ug/ml salmon sperm DNA; 0.015 pmol probe; 20 min at 20 C; conditions: protein: recombinant; MBP fusion; label: 32P 5' end label; blunt
T1 sequence: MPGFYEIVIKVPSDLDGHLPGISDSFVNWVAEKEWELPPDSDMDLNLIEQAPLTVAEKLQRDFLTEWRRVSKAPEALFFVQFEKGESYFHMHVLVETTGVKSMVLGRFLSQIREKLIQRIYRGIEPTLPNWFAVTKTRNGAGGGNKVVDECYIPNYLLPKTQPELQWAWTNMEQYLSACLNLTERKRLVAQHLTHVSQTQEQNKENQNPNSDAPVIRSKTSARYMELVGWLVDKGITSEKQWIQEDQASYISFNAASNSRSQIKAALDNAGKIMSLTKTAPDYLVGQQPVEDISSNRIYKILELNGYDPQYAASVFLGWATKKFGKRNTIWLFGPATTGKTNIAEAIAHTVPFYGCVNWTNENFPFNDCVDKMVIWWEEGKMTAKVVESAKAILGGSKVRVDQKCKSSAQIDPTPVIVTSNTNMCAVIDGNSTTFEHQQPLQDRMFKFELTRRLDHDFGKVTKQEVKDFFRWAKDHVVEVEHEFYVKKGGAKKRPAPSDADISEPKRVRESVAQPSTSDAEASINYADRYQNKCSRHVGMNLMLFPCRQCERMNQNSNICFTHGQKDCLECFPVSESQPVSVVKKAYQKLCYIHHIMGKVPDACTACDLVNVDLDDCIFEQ

MBP-Rep78 [2] = biological target: T1, MBP-Rep78; assay: EMSA; 10 mM Mg2+; 25 mM HEPES-KOH pH 7.8, 10 mM MgCl2, 40 mM NaCl, 1 mM DTT, 2% glycerol, 12.5 ug/ml BSA, 0.01% Nonidet P40, 5 ug/ml salmon sperm DNA; 0.015 pmol probe; 20 min at 20 C; conditions: protein: recombinant; MBP fusion; label: 32P 5' end label; blunt

B1: AAV-ITR (A-stem, nt 85-133) (dsDNA)
DNA 1: GCCTCAGTGAGCGAGCGAGCGCGCAGAGAGGGAGTGGCCAACTCCATCA
DNA 2: TGATGGAGTTGGCCACTCCCTCTCTGCGCGCTCGCTCGCTCACTGAGGC
MBP-Rep78 [1]
  binding result: binds

B2: Chr. 3p24.3 (AAVS3) (dsDNA)
DNA 1: GTGAGGAGTGAGTGAGTGAGCGAGCGCACATTCATTCCCCTTGGGAAGC
DNA 2: GCTTCCCAAGGGGAATGAATGTGCGCTCGCTCACTCACTCACTCCTCAC
MBP-Rep78 [2]
  binding signal: 2 fold of AAVS1 affinity

B3: AAV p5 (nt 245-292) (dsDNA)
DNA 1: TCACGCTGGGTATTTAAGCCCGAGTGAGCACGCAGGGTCTCCATTTTG
DNA 2: CAAAATGGAGACCCTGCGTGCTCACTCGGGCTTAAATACCCAGCGTGA
MBP-Rep78 [1]
  binding result: binds
